# Reference: article PMC4028237, “GmFT2a and GmFT5a Redundantly and Differentially Regulate Flowering through Interaction with and Upregulation of the bZIP Transcription Factor GmFDL19 in Soybean”
# T1: GmFDL19 (Glycine max, UniProt I1N8K2 1-320)
# T1 sequence: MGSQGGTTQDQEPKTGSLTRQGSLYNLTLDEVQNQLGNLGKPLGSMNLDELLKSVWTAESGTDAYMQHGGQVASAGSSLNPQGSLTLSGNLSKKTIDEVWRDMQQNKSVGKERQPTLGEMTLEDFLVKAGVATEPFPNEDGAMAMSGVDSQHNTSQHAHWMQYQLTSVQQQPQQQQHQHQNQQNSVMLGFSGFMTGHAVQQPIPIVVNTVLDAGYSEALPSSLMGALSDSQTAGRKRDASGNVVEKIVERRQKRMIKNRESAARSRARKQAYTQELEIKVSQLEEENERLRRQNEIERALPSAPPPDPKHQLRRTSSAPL
# Target: T1, GmFDL19
# Test: EMSA; Invitrogen EMSA kit E33075, 6% native TBE polyacrylamide gel, 200 V 45 min, SYBR Green stain; binding buffer, salt, pH and temperature not stated
# Details: protein: recombinant; tags: His (pET29b, NdeI/SalI); chain copies: 2; label: none (SYBR Green stain); blunt
binder,measurement,value
GmAP1aP-1280 CArG box (dsDNA) DNA 1: GCAACCATCCATCCAAAAATAAGGCAAAAAAAATAAACAT DNA 2: ATGTTTATTTTTTTTGCCTTATTTTTGGATGGATGGTTGC,binding result,no binding
